{"source": "paper PMC9977683", "about": "“IFNγ binding to extracellular matrix prevents fatal systemic toxicity” (Nature Immunology, 2023)", "molecules": {"B1": {"name": "Interferon-γ (IFNγ), recombinant (ligand, mouse, UniProt P01580 23-155, looked up)", "chain": "HGTVIESLESLNNYFNSSGIDVEEKSLFLDIWRNWQKDGDMKILQSQIISFYLRLFEVLKDNQAISNNISVIESHLITTFFSNSKAKKDAFMSIAKFEVNNPQVQRQAFNELIRVVHQLLPESSLRKRKRSRC", "notes": "mouse interferon-gamma, cDNA without the leader peptide, codon optimized, in pET28-N-His6-SUMO; also called IFNγ^wt; source: E. coli (T7 express, with pRARE plasmid), purified (HisTrap, size-exclusion chromatography); not shown: His6-SUMO, N-terminal, cleaved"}, "B2": {"name": "IFNγ–green fluorescent protein fusion protein (IFNγ–GFP), recombinant (ligand, mouse, UniProt P01580 23-155, looked up)", "chain": "B1 chain", "notes": "mouse interferon-gamma, cDNA without the leader peptide, with GFP fused to the C-terminus; source: E. coli (T7 express, with pRARE plasmid), purified (HisTrap, Superdex 200); not shown: His6-SUMO, N-terminal, cleaved; GFP, C-terminal, kept"}}, "key": {"[1]": {"biological_target": "IFNγ receptor (Homo sapiens) (UniProt P15260)", "sequence (P15260 18-245)": "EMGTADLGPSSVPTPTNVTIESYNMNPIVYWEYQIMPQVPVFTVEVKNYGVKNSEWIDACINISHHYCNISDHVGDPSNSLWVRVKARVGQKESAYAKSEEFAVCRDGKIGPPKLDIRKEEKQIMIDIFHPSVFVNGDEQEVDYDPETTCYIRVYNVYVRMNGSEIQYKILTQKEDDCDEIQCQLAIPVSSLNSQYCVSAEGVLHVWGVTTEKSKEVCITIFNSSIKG", "conditions": "cited from earlier work"}, "[2]": {"biological_target": "T1, IFNγR1 extracellular domain (amino acids 26–254), recombinant (mouse, UniProt P15261 26-254)", "T1 construct": "mouse interferon-gamma receptor 1, extracellular domain, amino acids 26-254, cloned from mouse cDNA into pET26b-N-His6-SUMO; Immobilised on the chip through anti-His5; source: E. coli (T7 express, with pRARE plasmid), periplasmic expression, purified (osmotic shock, HisTrap, gel filtration); not shown: His6-SUMO, N-terminal, cleaved; His6, C-terminal, kept", "T1 sequence (looked up)": "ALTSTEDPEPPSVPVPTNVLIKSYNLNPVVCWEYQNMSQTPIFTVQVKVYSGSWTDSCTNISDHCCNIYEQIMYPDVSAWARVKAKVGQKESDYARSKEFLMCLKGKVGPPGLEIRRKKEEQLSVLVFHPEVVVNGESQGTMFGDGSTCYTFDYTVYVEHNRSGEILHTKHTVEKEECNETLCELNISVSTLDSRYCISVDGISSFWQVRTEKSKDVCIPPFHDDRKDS", "test": "SPR; Biacore T200, CM4 chip coated with anti-His5 onto which recombinant IFNγR1 was immobilised; IFNγ variants injected over 180 s at 0, 1, 2.5, 5, 10, 25 and 50 nM", "conditions": "both partners purified"}}}
{"molecule": "IFNγ (from UniProt P01579)", "values": [{"measurement": "Kd", "setting": "[1]", "result": 0.5, "unit": "nM"}]}
{"molecule": "B1", "values": [{"measurement": "binding result", "setting": "[2]", "result": "binds"}]}
{"molecule": "B2", "values": [{"measurement": "binding result", "setting": "[2]", "result": "binds"}]}
